The results in this text go back to US5770720.

For test [1], the target named is LexADB/lamin C hybrid (Escherichia coli (strain K12)). Briefly: yeast two-hybrid, LexA DNA binding domain fusion against Gal4 activation domain vector alone.
The target in test [2] is LexADB/WT-INS (containing residues 250-266 of WT1) (human) (UniProt P19544). The test is described as above.
Test [3] concerns the target LexADB/WT-N (LexA DNA binding domain fused to residues 85-179 of human WT1) (human) (UniProt P19544). The test is described as above.
Test [4] concerns the target WT1, Wilm's tumor suppressor gene product (full length) (human) (UniProt P19544).
The target in test [5] is LexADB/lamin C hybrid (Escherichia coli (strain K12)). The test is described as follows: yeast two-hybrid, LexA DNA binding domain fusion against Gal4 activation domain fusion.
The target of test [6] is LexADB/WT-N (LexA DNA binding domain fused to residues 85-179 of human WT1) (human) (UniProt P19544). The test is described as above.

Chain of hUBC-9, human ubiquitin conjugating enzyme (P63279 whole entry): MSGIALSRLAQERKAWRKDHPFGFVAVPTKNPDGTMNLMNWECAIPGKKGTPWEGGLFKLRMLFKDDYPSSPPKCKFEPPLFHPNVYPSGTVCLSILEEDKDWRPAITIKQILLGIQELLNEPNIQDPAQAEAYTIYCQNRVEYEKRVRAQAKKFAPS
Chain of hUBC-9 fused with the Gal4 activation domain (P63279 whole entry, the tested form may be a part): as the sequence (P63279 whole entry) above

As for “Gal4 activation domain vector alone (from UniProt P04386)”, the β-Galactosidase activity in test [1] came to 0.3 units; in test [2], 0.2 units; in test [3], 0.3 units.

With “hUBC-9, human ubiquitin conjugating enzyme”, the relative CAT activity (PDGF A-chain promoter driven CAT reporter, 293 cells) (% relative activity) in test [4] was 2.

In the case of “hUBC-9 fused with the Gal4 activation domain”, the β-Galactosidase activity in test [5] came to 1.5 units; in test [6], 57.9 units.
